The text below walks through data of the DeepSol protein solubility set.

The nature of this data set: soluble on expression in E. coli; label from the status in PepcDB or PDB records.
Regarding “MEKKITQEGLARMIDKGMGTLLALPEIEKKKKSGDLPDNFKMEDGFGVYRVEVGGNEYLCVTNILCNKCERVNGKVKRCEAHKKKRKARKVRKDGDVADDTSDREKLGGLRHVNDEEEEEDKIEGAVTPDFVMTPGIGGAIILVPVDAKNNDRAGPPAKGLNHVKGILVRGAGNIPQFIPNDRLTKAHKLRFDNYIEGELNLVNGKEVFVPNNLGAAKMDEKNAQDVAKAAVADKVDQKVVDAIGKDMVVAVQVDVADNGMPVMKVLEGKPKDKETPVGIIVKANDQVQFVQIVGRELGGGKDAKMMPCTIPENGKVGDVIADVYVNKEGKAVSAKPGDAPAGAPVIGQVIVGQNDQLVFVAKGENKDDAVKKGAKMTPEMKEKLEQAQAKVQAAVTGQSADHIQEQVNRIGVPEAAATSAANGGNNAGGGGSSAEVRSVGFGAQQFGGSQFARPIPAGGGGGGSGGYGAGGGGSGGYGAGGAGGARNSASNGSYGSSANEVKSVGFGAQQYGGSVFAKPSGTGGGYVSAGSSARKSGESGAGGGGAGGGKAGGAKNSASYGSSANEVKSVGFGAQQYGGSVFIRK”, the “soluble on expression in E. coli” value is “not soluble”. Consider “MTTQTIKFHMKPETFKQNAAISLQDKPLRKSLRTAMDMLMTKRKAVLTDEEELQSLRDLCEHVRQRSLSKLPALLEQLEENLTKLGVKVHWAETPTEACQIIHDIITAKNGKLMVKGKSMVSEEIELNHYLEAKGIKAVESDLGEFIVQMAGEKPTHIVMPAIHKTKEQVSELFHQNLGTPLTDDVDQLTGFARKALRDIYSTADVGLSGVNFAVAETGTLCLVENEGNGRLSTTVPPVHIAITGIEKVVAKLSDIPPLYSLLPRSAIGQNITTYFNMITGPRRSEELDGPQEMHLVLLDNGRSQAYAEDQMRRTLQCIRCGACMNHCPVYTRIGGAAYGTTYPGPIGEIISPHLLGLDATRDLPTACTMCGACVEVCPVRIPITEQMQRLRVEAQRSPTETVPHPIRGQGASHTFGEQMAWRTFNGIFSGSKTYRAFGWAATKFRNLTPRKQLGWTQNRVPMKPAKKTLHELMAEKMRQKEQA”, for which the “soluble on expression in E. coli” value is reported as “not soluble”. On to “SNKLMELANLQPKRPKTIKQRHVRKKRKIKDMLNTPLCPSHSSLHPVLLPSDVFDQPQPVGNKRIEFHISTDMPAAFKKDLEKEQNCEEKNHDLPATEVDASNIGFGKIFPKPNLDITEEIKEDSDEMPSECISRRELEKGRISREEMETLSVFRSYEPGEPNCRIYVKNLAKHVQEKDLKYIFGRYVDFSSETQRIMFDIRLMKEGRMKGQAFIGLPNEKAAAKALKEANGYVLFGKPMVVQFARSARPKQDPKEGKRKC”, for which the “soluble on expression in E. coli” value is “soluble”.

For the sequence “MPSVKIGIIGAGSAVFSLRLVSDLCKTPGLSGSTVTLMDIDEERLDAILTIAKKYVEEVGADLKFEKTMNLDDVIIDADFVINTAMVGGHTYLEKVRQIGEKYGYYRGIDAQEFNMVSDYYTFSNYNQLKYFVDIARKIEKLSPKAWYLQAANPIFEGTTLVTRTVPIKAVGFCHGHYGVMEIVEKLGLEEEKVDWQVAGVNHGIWLNRFRYNGGNAYPLLDKWIEEKSKDWKPENPFNDQLSPAAIDMYRFYGVMPIGDTVRNSSWRYHRDLETKKKWYGEPWGGADSEIGWKWYQDTLGKVTEITKKVAKFIKENPSVRLSDLGSVLGKDLSEKQFVLEVEKILDPERKSGEQHIPFIDALLNDNKARFVVNIPNKGIIHGIDDDVVVEVPALVDKNGIHPEKIEPPLPDRVVKYYLRPRIMRMEMALEAFLTGDIRIIKELLYRDPRTKSDEQVEKVIEEILALPENEEMRKHYLKR”, the “soluble on expression in E. coli” value was “soluble”. For the sequence “MAAHSIFTTTSTTNSFLYPISSSSSSPNINSSFLGVSLNVNAKFGQSLTLYAVTTPKPLTVFAATKKAVAVLKGNSNVEGVVTLSQDDDGPTTVNVRITGLAPGLHGFHLHEYGDTTNGCMSTGAHFNPNKLTHGAPGDEIRHAGDLGNIVANADGVAEVTLVDNQIPLTGPNSVVGRALVVHELEDDLGKGGHELSLTTGNAGGRLACGVVGLTPI”, the “soluble on expression in E. coli” value is “soluble”. For “MGKKPVVIGVAGGSGSGKTSVARAIYDHFGDHSILVLEQDFYYKDQSHLPFEERLKTNYDHPLAFDNDLLIEHIHKLLRYEPIDKPVYDYTLHTRSSDVIRVEPKDVIIVEGILVLEDERLRNLMDIKVYVDTDPDIRIIRRLIRDMKERGRTFDSVIEQYLSVVRPMHNQFVEPTKRYADVIIPEGGQNVVAIDLMVAKIRTVLEQKAVL”, the “soluble on expression in E. coli” value is listed as “not soluble”.

For the sequence “SSGHIEGRHMNKQATEILNEYFYSHLSNPYPSEEAKEELAKKCGITVSQVSNWFGNKRIRYKKN”, the “soluble on expression in E. coli” value was “soluble”. As for “MTINYQFGDVDAHGAMIRAQAGSLEAEHQAIISDVLTASDFWGGAGSAACQGFITQLGRNFQVIYEQANAHGQKVQAAGNNMAQTDSAVGSSWA”, the “soluble on expression in E. coli” value is “not soluble”. Consider “MSKFLDRFRYFKQKGETFADGHGQLLNTNRDWEDGYRQRWQHDKIVRSTHGVNCTGSCSWKIYVKNGLVTWETQQTDYPRTRPDLPNHEPRGCPRGASYSWYLYSANRLKYPMMRKRLMKMWREAKALHSDPVEAWASIIEDADKAKSFKQARGRGGFVRSSWQEVNELIAASNVYTIKNYGPDRVAGFSPIPAMSMVSYASGARYLSLIGGTCLSFYDWYCDLPPASPQTWGEQTDVPESADWYNSSYIIAWGSNVPQTRTPDAHFFTEVRYKGTKTVAVTPDYAEIAKLCDLWLAPKQGTDAAMALAMGHVMLREFHLDNPSQYFTDYVRRYTDMPMLVMLEERDGYYAAGRMLRAADLVDALGQENNPEWKTVAFNTNGEMVAPNGSIGFRWGEKGKWNLEQRDGKTGEETELQLSLLGSQDEIAEVGFPYFGGDGTEHFNKVELENVLLHKLPVKRLQLADGSTALVTTVYDLTLANYGLERGLNDVNCATSYDDVKAYTPAWAEQITGVSRSQIIRIAREFADNADKTHGRSMIIVGAGLNHWYHLDMNYRGLINMLIFCGCVGQSGGGWAHYVGQEKLRPQTGWQPLAFALDWQRPARHMNSTSYFYNHSSQWRYETVTAEELLSPMADKSRYTGHLIDFNVRAERMGWLPSAPQLGTNPLTIAGEAEKAGMNPVDYTVKSLKEGSIRFAAEQPENGKNHPRNLFIWRSNLLGSSGKGHEFMLKYLLGTEHGIQGKDLGQQGGVKPEEVDWQDNGLEGKLDLVVTLDFRLSSTCLYSDIILPTATWYEKDDMNTSDMHPFIHPLSAAVDPAWEAKSDWEIYKAIAKKFSEVCVGHLGKETDIVTLPIQHDSAAELAQPLDVKDWKKGECDLIPGKTAPHIMVVERDYPATYERFTSIGPLMEKIGNGGKGIAWNTQSEMDLLRKLNYTKAEGPAKGQPMLNTAIDAAEMILTLAPETNGQVAVKAWAALSEFTGRDHTHLALNKEDEKIRFRDIQAQPRKIISSPTWSGLEDEHVSYNAGYTNVHELIPWRTLSGRQQLYQDHQWMRDFGESLLVYRPPIDTRSVKEVIGQKSNGNQEKALNFLTPHQKWGIHSTYSDNLLMLTLGRGGPVVWLSEADAKDLGIADNDWIEVFNSNGALTARAVVSQRVPAGMTMMYHAQERIVNLPGSEITQQRGGIHNSVTRITPKPTHMIGGYAHLAYGFNYYGTVGSNRDEFVVVRKMKNIDWLDGEGNDQVQESVK”, for which the “soluble on expression in E. coli” value is given as “soluble”. Regarding “MSSDVRFTDFKSDKQPTWCPGCGDFGTMNGMMKALAETGNDPDNTFIVAGIGCSGKIGTYMHSYALHGVHGRALPVGIGVKMANPDLEVMVSGGDGDGYSIGAGHFIHAVRRNVDMSYVVMDNRIYGLTKGQASPTSREDFETSTSPDGPNQPPVNPKALALASGATFIAQSFSSNAQRHAEIVQKAVEHDGFGFVNVYSPCVTFNDVDTYDYFRDAIVDLDETDHDPADRDQAKDKILESEKEYMGVLYQDEDSVPFEEREGVEGSMAEIPDGAPEGAMDLVREFY”, the “soluble on expression in E. coli” value is “not soluble”.

As for “SLQSYQSVDSIRAAALATVGPDAEAEATLDPGLRMPGCPIALQAKPTGTNTVEVACPQPAGWRLFVPLKVRRNQDVLVLRRGISAGETISLADISIEKRDAARIVGAVLADPVAAVGKTARRILPAGSLLSANDLVSQRLVRRGDTVPLVSRNGGLEVRMSGRALSDAGENERVSVENSSSRRVVQGIVEASGTVVVSR”, the “soluble on expression in E. coli” value was “soluble”. Consider “MRVVALGDLHANFPLLWRILRREGLADEGFRPTEALRSGRVRLVLLGDLVHPKTPRDYARLTGLEAYDPEDPFHLRLAAGAQIRELFRLKAFQEEAGDHVTILLGNHEAALLEGSPILGNRHLKHLEFHPEHGGKALPEALRSWMASFPKELVLKGVHFAHVGPVPWLQEYDGLFYAQSEAKTWWFLTPEYVERMGYRYGVYGHTPMPDGILLKDRFALIDALDLGEYLVLDPEADPPRPEVRRLHE”, for which the “soluble on expression in E. coli” value is on record as “soluble”. With “MLKRLISIPTVAPQGDHYGEAAELLARELESLGFETVVERVPSEYQREKCRHASDNPRFIVYGRRGEGPALHFNGHYDVVPGGPGWSVTEPFKPVVKDGKLYGRGAIDMKGGIAAALGAFKALHLSGAWPQGLRVEAAFVPDEEIGGECGTGYLVNGMGVTPEYVVLPEPSGLEKPWHGHRGILWMKVRVKGRTAHASTPWHGRNAFLLASAIALDLQQALASMYAGRRSRHRIEPEESAKPTVSLGGEAGVTGGGKTNQVPGEFYFTVDRRLIPEETVSQARDELLGVLTWLSVKHGAEVEAEEVISAEPAINEPGELYEALREAASQSGRSIGEPVVCPGGLDMWYYTVKGSKALAYGPRGELAHAPDEHIDLGELRFLVETFARLPITLAVALQRRT” the entry was “soluble”.

As for “MACLTDLVNLNLSDTTEKIIAEYIWIGGSGMDLRSKARTLPGPVTDPSKLPKWNYDGSSTGQAPGEDSEVILYPQAIFKDPFRRGNNILVMCDCYTPAGEPIPTNKRYSAAKIFSSPEVAAEEPWYGIEQEYTLLQKDTNWPLGWPIGGFPGPQGPYYCGIGAEKSFGRDIVDAHYKACLYAGINISGINGEVMPGQWEFQVGPSVGISSGDQVWVARYILERITEIAGVVVTFDPKPIPGDWNGAGAHTNYSTESMRKEGGYEVIKAAIEKLKLRHKEHIAAYGEGNERRLTGRHETADINTFSWGVANRGASVRVGRETEQNGKGYFEDRRPASNMDPYVVTSMIAETTIVWKP”, the “soluble on expression in E. coli” value is given as “soluble”. “MRYFPLFLDLTNKPVLVVGGGEVACRKIDALLRADAKVTVISPQVAPALQAWIEQGKCHWIQHFYSSHWLDKRYVQVWATTDNPELNHQVYKDAKEQGILVNVVDDQPYCDFITPSMIERGRIQLAISSGGASPVLIRNIRETLEAVLAQNLALLADFGASKRNSIKDFLPSVDLRRQFWERFFAHPEVKNAQDRESLERIYIHLLTQSTDKVSATTWIEFGADVELLSLKALRYMQQAELVLHTQDCPFVFVDLCRRDAQRQSFNSSVELSTLLLQAQQETQNVCVLIPSGSSEYALLQGKATVLKMAQQG”: the “soluble on expression in E. coli” value is reported as “not soluble”. With “MSVIIVGGGMAGATLALAISRLSHGALPVHLIEATAPESHAHPGFDGRAIALAAGTCQQLARIGVWQSLADCATAITTVHVSDRGHAGFVTLAAEDYQLAALGQVVELHNVGQRLFALLRKAPGVMLHCPDRVANVARTQSHVEVTLESGEMLTGRVLIAADGTHSALATACGVDWQQEPYEQLAVIANVATSVAHEGRAFERFTQHGPLAMLPMSDGRCSLVWCHPLERREEVLSWSDEKFCRELQSAFGWRLGQITHAGKRSAYPLALTRAARPITHRTVLVGNAAQTLHPIAGQGFNLGMRDVMSLAETLTQAHERGEDIGDYGILCRYQQRRQSDREATIGVTDSLVHLFANRWAPLVVGRNIGLMTMELFTPARDVLAQRTLGWVARLEHHHHHH” the entry was “soluble”.

With “MYNVVSFNNEGVEHMKPTSEKSKEIRKKYKAPGASDEQLANSIKVASEFEYKNSSTFGWGGVYMVDRFQSMITGRAITNNTQKLLDAQALEEEASKANLKQ”, the “soluble on expression in E. coli” value is listed as “not soluble”.
